Data on one sequence can be found in PMC3164674.

This series has as its target MUC1 (mucin 1) on the surface of MCF-7 cells (human (MCF-7 breast cancer cell line)) (UniProt P15941). Kind of series: flow cytometry on cells. The conditions noted are these: 300 nM DNA; 5 mM Mg2+; MUC1+ MCF-7 vs MUC1- HepG2; S2.2 with 48-nt DNA spacer at 3' end; 100 mM NaCl, 5 mM MgCl2, pH 7.2, 300 nM DNA, 30 min; temperature not stated. For orientation: A flow cytometer gives signals particle by particle.
Chain of UniProt P15941 (P15941 whole entry): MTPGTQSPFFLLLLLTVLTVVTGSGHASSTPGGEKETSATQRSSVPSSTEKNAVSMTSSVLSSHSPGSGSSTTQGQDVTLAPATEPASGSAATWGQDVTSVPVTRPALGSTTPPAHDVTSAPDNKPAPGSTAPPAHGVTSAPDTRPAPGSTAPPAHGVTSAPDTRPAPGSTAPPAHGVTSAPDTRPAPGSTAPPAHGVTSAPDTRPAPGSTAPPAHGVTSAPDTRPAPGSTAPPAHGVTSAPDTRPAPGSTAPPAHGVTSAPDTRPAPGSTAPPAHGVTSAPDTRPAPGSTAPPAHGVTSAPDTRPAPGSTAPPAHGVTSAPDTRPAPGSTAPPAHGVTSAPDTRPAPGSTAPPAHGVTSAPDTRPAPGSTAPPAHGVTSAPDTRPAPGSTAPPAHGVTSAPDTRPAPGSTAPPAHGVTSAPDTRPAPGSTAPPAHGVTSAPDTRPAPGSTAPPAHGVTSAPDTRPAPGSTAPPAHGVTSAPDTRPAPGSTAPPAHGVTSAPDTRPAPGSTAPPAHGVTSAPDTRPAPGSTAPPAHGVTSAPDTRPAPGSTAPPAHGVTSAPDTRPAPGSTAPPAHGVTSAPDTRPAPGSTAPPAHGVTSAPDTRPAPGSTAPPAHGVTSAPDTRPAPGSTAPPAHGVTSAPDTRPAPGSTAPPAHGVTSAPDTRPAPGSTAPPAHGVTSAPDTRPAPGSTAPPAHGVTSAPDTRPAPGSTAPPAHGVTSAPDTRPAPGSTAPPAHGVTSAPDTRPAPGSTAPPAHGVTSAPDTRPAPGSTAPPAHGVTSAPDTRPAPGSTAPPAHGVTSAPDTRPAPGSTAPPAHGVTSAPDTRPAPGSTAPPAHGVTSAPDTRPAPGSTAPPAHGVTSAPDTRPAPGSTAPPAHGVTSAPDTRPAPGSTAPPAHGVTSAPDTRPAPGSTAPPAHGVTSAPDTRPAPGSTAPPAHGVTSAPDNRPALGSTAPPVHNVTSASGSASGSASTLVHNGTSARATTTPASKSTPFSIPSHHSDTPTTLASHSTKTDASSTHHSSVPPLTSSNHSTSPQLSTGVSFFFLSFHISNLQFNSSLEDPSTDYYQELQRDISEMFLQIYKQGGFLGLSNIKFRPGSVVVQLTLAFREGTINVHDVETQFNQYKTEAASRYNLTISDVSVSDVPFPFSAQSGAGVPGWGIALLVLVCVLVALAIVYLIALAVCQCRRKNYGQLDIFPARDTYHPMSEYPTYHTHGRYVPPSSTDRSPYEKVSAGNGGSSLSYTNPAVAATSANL

For “GCAGTTGATCCTTTGGATACCCTGGTTCCCTTCCTTCTCTCTTCCTCTCTCCTTCTCTCTTCCTCTCTCCTTC [S2.2-spacer]”, the binding signal (fold (mean fluorescence MCF-7/HepG2)) stood at 3.5.
